Reference: the supplement of paper PMC9112550, “Optimization of the antimicrobial peptide Bac7 by deep mutational scanning” (BMC Biology, 2022)

Test system: Escherichia coli TOP10
Assay: shrunken log2 fold change of peptide-encoding DNA abundance (4.5 h post-induction vs induction); higher = less antimicrobial activity (less host growth inhibition)
Conditions: time post-induction: 4.5 h; library: site-saturation at positions 5, 18, 19, 20
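Further: peptides expressed intracellularly from a pBAD plasmid library in pooled LB shake-flask culture, induced with 0.3% L-arabinose, DNA abundance read by NGS, three biological replicates, DESeq2 with apeglm shrinkage.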

## RRIRERPPRLPRPRPRPGTTPRP
  shrunken log2 fold change: -0.433

## RRIRGRPPRLPRPRPRPTVPPRP
  shrunken log2 fold change: 0.433

## RRIRCRPPRLPRPRPRPCYPPRP
  shrunken log2 fold change: -0.743

## RRIRNRPPRLPRPRPRPAQHPRP
  shrunken log2 fold change: 0.00182

## RRIRARPPRLPRPRPRPPVEPRP
  shrunken log2 fold change: 0.292

## RRIRSRPPRLPRPRPRPKQDPRP
  shrunken log2 fold change: 0.0172

## RRIRWRPPRLPRPRPRPLFMPRP
  shrunken log2 fold change: -0.286

## RRIRRRPPRLPRPRPRPDAQPRP
  shrunken log2 fold change: 0.471

## RRIRSRPPRLPRPRPRPQYTPRP
  shrunken log2 fold change: -0.983

## RRIRIRPPRLPRPRPRPWKTPRP
  shrunken log2 fold change: -0.197

## RRIRGRPPRLPRPRPRPEKCPRP
  shrunken log2 fold change: 0.599

## RRIRCRPPRLPRPRPRPSDQPRP
  shrunken log2 fold change: -0.0132

## RRIRHRPPRLPRPRPRPPYFPRP
  shrunken log2 fold change: -0.366

## RRIRARPPRLPRPRPRPATFPRP
  shrunken log2 fold change: 0.129

## RRIRARPPRLPRPRPRPRESPRP
  shrunken log2 fold change: 0.198

## RRIRTRPPRLPRPRPRPYRMPRP
  shrunken log2 fold change: -0.128

## RRIRMRPPRLPRPRPRPDGNPRP
  shrunken log2 fold change: 0.0626

## RRIRVRPPRLPRPRPRPTLLPRP
  shrunken log2 fold change: -0.196

## RRIRQRPPRLPRPRPRPELNPRP
  shrunken log2 fold change: 0.0915

## RRIRQRPPRLPRPRPRPKKHPRP
  shrunken log2 fold change: -0.236

## RRIRGRPPRLPRPRPRPQHWPRP
  shrunken log2 fold change: 0.165

## RRIRFRPPRLPRPRPRPCKHPRP
  shrunken log2 fold change: -0.0872

## RRIRLRPPRLPRPRPRPCMTPRP
  shrunken log2 fold change: 0.0964

## RRIRDRPPRLPRPRPRPNNFPRP
  shrunken log2 fold change: -0.418

## RRIRGRPPRLPRPRPRPKTGPRP
  shrunken log2 fold change: 0.692

## RRIRPRPPRLPRPRPRPVSPPRP
  shrunken log2 fold change: 0.0647

## RRIRWRPPRLPRPRPRPAMFPRP
  shrunken log2 fold change: 0.324

## RRIRIRPPRLPRPRPRPSRIPRP
  shrunken log2 fold change: -0.0712

## RRIRHRPPRLPRPRPRPYYCPRP
  shrunken log2 fold change: -0.541

## RRIRERPPRLPRPRPRPRAKPRP
  shrunken log2 fold change: 0.192

## RRIRTRPPRLPRPRPRPMMGPRP
  shrunken log2 fold change: -0.1

## RRIRCRPPRLPRPRPRPKLVPRP
  shrunken log2 fold change: -0.152

## RRIRERPPRLPRPRPRPGVLPRP
  shrunken log2 fold change: -0.177

## RRIRRRPPRLPRPRPRPYFYPRP
  shrunken log2 fold change: -0.683

## RRIRSRPPRLPRPRPRPCSGPRP
  shrunken log2 fold change: -0.0317

## RRIRQRPPRLPRPRPRPSDWPRP
  shrunken log2 fold change: -0.131

## RRIRLRPPRLPRPRPRPHQKPRP
  shrunken log2 fold change: -0.0932

## RRIRGRPPRLPRPRPRPWHGPRP
  shrunken log2 fold change: -0.163

## RRIRMRPPRLPRPRPRPRIEPRP
  shrunken log2 fold change: -0.0903

## RRIRFRPPRLPRPRPRPWAPPRP
  shrunken log2 fold change: -0.013

## RRIRMRPPRLPRPRPRPGSVPRP
  shrunken log2 fold change: 0.696

## RRIRIRPPRLPRPRPRPLAFPRP
  shrunken log2 fold change: -0.302

## RRIRCRPPRLPRPRPRPPAAPRP
  shrunken log2 fold change: 1.78

## RRIRQRPPRLPRPRPRPHYSPRP
  shrunken log2 fold change: -0.0998

## RRIRQRPPRLPRPRPRPWWMPRP
  shrunken log2 fold change: -0.0322

## RRIRRRPPRLPRPRPRPFIKPRP
  shrunken log2 fold change: -0.368

## RRIRGRPPRLPRPRPRPCTPPRP
  shrunken log2 fold change: 0.337

## RRIRNRPPRLPRPRPRPQKNPRP
  shrunken log2 fold change: -0.318

## RRIRPRPPRLPRPRPRPNQNPRP
  shrunken log2 fold change: -0.178

## RRIRHRPPRLPRPRPRPYEAPRP
  shrunken log2 fold change: -0.445

## RRIRIRPPRLPRPRPRPKTMPRP
  shrunken log2 fold change: -0.198

## RRIRGRPPRLPRPRPRPMQSPRP
  shrunken log2 fold change: 0.47

## RRIRRRPPRLPRPRPRPHCLPRP
  shrunken log2 fold change: -0.192

## RRIRRRPPRLPRPRPRPWPCPRP
  shrunken log2 fold change: 0.133

## RRIRCRPPRLPRPRPRPKHSPRP
  shrunken log2 fold change: -0.401

## RRIRHRPPRLPRPRPRPESSPRP
  shrunken log2 fold change: 0.087

## RRIRRRPPRLPRPRPRPQSFPRP
  shrunken log2 fold change: 0.0366

## RRIRPRPPRLPRPRPRPMPDPRP
  shrunken log2 fold change: 0.163

## RRIRRRPPRLPRPRPRPVKAPRP
  shrunken log2 fold change: 0.148

## RRIRGRPPRLPRPRPRPVTPPRP
  shrunken log2 fold change: 1.24

## RRIRQRPPRLPRPRPRPFKLPRP
  shrunken log2 fold change: -0.152

## RRIRSRPPRLPRPRPRPNWTPRP
  shrunken log2 fold change: -0.000246

## RRIRFRPPRLPRPRPRPYTQPRP
  shrunken log2 fold change: -0.152

## RRIRVRPPRLPRPRPRPETTPRP
  shrunken log2 fold change: 0.348

## RRIRPRPPRLPRPRPRPWCQPRP
  shrunken log2 fold change: 0.0224

## RRIRLRPPRLPRPRPRPHCQPRP
  shrunken log2 fold change: -0.0416

## RRIRVRPPRLPRPRPRPSFAPRP
  shrunken log2 fold change: 0.0593

## RRIRTRPPRLPRPRPRPNIRPRP
  shrunken log2 fold change: -0.0979

## RRIRTRPPRLPRPRPRPHCRPRP
  shrunken log2 fold change: -0.0822

## RRIRMRPPRLPRPRPRPWDNPRP
  shrunken log2 fold change: 0.013

## RRIRTRPPRLPRPRPRPWYPPRP
  shrunken log2 fold change: -0.255

## RRIRFRPPRLPRPRPRPVDLPRP
  shrunken log2 fold change: -0.102

## RRIRDRPPRLPRPRPRPHHQPRP
  shrunken log2 fold change: -0.0302

## RRIRPRPPRLPRPRPRPKQVPRP
  shrunken log2 fold change: -0.0541

## RRIRCRPPRLPRPRPRPTPRPRP
  shrunken log2 fold change: 0.987

## RRIRYRPPRLPRPRPRPKTNPRP
  shrunken log2 fold change: -0.516

## RRIRARPPRLPRPRPRPHCWPRP
  shrunken log2 fold change: 0.17

## RRIRGRPPRLPRPRPRPHKHPRP
  shrunken log2 fold change: 0.0984

## RRIRMRPPRLPRPRPRPSNTPRP
  shrunken log2 fold change: -0.0896

## RRIRDRPPRLPRPRPRPSIPPRP
  shrunken log2 fold change: -0.43

## RRIRHRPPRLPRPRPRPNWKPRP
  shrunken log2 fold change: -0.0172

## RRIRLRPPRLPRPRPRPQNRPRP
  shrunken log2 fold change: -0.231

## RRIRMRPPRLPRPRPRPIMQPRP
  shrunken log2 fold change: 0.0343

## RRIRSRPPRLPRPRPRPENFPRP
  shrunken log2 fold change: -0.0342

## RRIRFRPPRLPRPRPRPRNTPRP
  shrunken log2 fold change: -0.279

## RRIRNRPPRLPRPRPRPHAMPRP
  shrunken log2 fold change: -0.316

## RRIRGRPPRLPRPRPRPKCGPRP
  shrunken log2 fold change: 0.814

## RRIRFRPPRLPRPRPRPTSMPRP
  shrunken log2 fold change: -0.00284

## RRIRDRPPRLPRPRPRPADTPRP
  shrunken log2 fold change: -0.379

## RRIRWRPPRLPRPRPRPERWPRP
  shrunken log2 fold change: 1.14

## RRIRRRPPRLPRPRPRPAPYPRP
  shrunken log2 fold change: 0.408

## RRIRQRPPRLPRPRPRPRSYPRP
  shrunken log2 fold change: -0.286

## RRIRERPPRLPRPRPRPFRRPRP
  shrunken log2 fold change: 0.0491

## RRIRIRPPRLPRPRPRPWKAPRP
  shrunken log2 fold change: -0.00804

## RRIRDRPPRLPRPRPRPALGPRP
  shrunken log2 fold change: 0.933

## RRIRERPPRLPRPRPRPSAAPRP
  shrunken log2 fold change: 0.133

## RRIRLRPPRLPRPRPRPVAMPRP
  shrunken log2 fold change: 0.0144

## RRIRVRPPRLPRPRPRPEQGPRP
  shrunken log2 fold change: 0.0379

## RRIRERPPRLPRPRPRPRYNPRP
  shrunken log2 fold change: -0.672

## RRIRMRPPRLPRPRPRPDQAPRP
  shrunken log2 fold change: 0.357

## RRIRRRPPRLPRPRPRPRRTPRP
  shrunken log2 fold change: 0.46

## RRIRQRPPRLPRPRPRPEHQPRP
  shrunken log2 fold change: -0.0955

## RRIRNRPPRLPRPRPRPKEIPRP
  shrunken log2 fold change: 0.0136

## RRIRRRPPRLPRPRPRPHILPRP
  shrunken log2 fold change: -0.68

## RRIRSRPPRLPRPRPRPSLPPRP
  shrunken log2 fold change: -0.352

## RRIRRRPPRLPRPRPRPYVAPRP
  shrunken log2 fold change: -0.361

## RRIRWRPPRLPRPRPRPSDQPRP
  shrunken log2 fold change: 0.138

## RRIRQRPPRLPRPRPRPLYPPRP
  shrunken log2 fold change: -0.228

## RRIRDRPPRLPRPRPRPRTIPRP
  shrunken log2 fold change: -0.018

## RRIRSRPPRLPRPRPRPYEVPRP
  shrunken log2 fold change: 0.07

## RRIRWRPPRLPRPRPRPASIPRP
  shrunken log2 fold change: -0.336

## RRIRRRPPRLPRPRPRPFHMPRP
  shrunken log2 fold change: -0.0949

## RRIRPRPPRLPRPRPRPHVGPRP
  shrunken log2 fold change: -0.0279

## RRIRRRPPRLPRPRPRPPEEPRP
  shrunken log2 fold change: 1.37

## RRIRKRPPRLPRPRPRPTPGPRP
  shrunken log2 fold change: 0.683

## RRIRSRPPRLPRPRPRPHVIPRP
  shrunken log2 fold change: -0.6

## RRIRPRPPRLPRPRPRPWKEPRP
  shrunken log2 fold change: -0.164

## RRIRDRPPRLPRPRPRPEVQPRP
  shrunken log2 fold change: 0.988

## RRIRVRPPRLPRPRPRPRLAPRP
  shrunken log2 fold change: 0.684

## RRIRIRPPRLPRPRPRPKCPPRP
  shrunken log2 fold change: -0.263

## RRIRMRPPRLPRPRPRPGANPRP
  shrunken log2 fold change: 1.17

## RRIRIRPPRLPRPRPRPDWMPRP
  shrunken log2 fold change: -0.131

## RRIRSRPPRLPRPRPRPIMAPRP
  shrunken log2 fold change: 0.163

## RRIRNRPPRLPRPRPRPHAVPRP
  shrunken log2 fold change: 0.00516

## RRIRDRPPRLPRPRPRPPCSPRP
  shrunken log2 fold change: 0.126

## RRIRMRPPRLPRPRPRPCEGPRP
  shrunken log2 fold change: -0.00822

## RRIRPRPPRLPRPRPRPGPTPRP
  shrunken log2 fold change: 0.0907

## RRIRNRPPRLPRPRPRPLISPRP
  shrunken log2 fold change: 3.16

## RRIRKRPPRLPRPRPRPVIMPRP
  shrunken log2 fold change: 0.137

## RRIRWRPPRLPRPRPRPPENPRP
  shrunken log2 fold change: 0.0933

## RRIRCRPPRLPRPRPRPRHTPRP
  shrunken log2 fold change: -0.0438

## RRIRERPPRLPRPRPRPNWAPRP
  shrunken log2 fold change: 0.0312

## RRIRDRPPRLPRPRPRPHYAPRP
  shrunken log2 fold change: -0.00151

## RRIRDRPPRLPRPRPRPTVFPRP
  shrunken log2 fold change: 0.708

## RRIRKRPPRLPRPRPRPCTVPRP
  shrunken log2 fold change: 0.23

## RRIRPRPPRLPRPRPRPSQEPRP
  shrunken log2 fold change: -0.199

## RRIRPRPPRLPRPRPRPLWQPRP
  shrunken log2 fold change: 0.0105

## RRIRVRPPRLPRPRPRPKRAPRP
  shrunken log2 fold change: 0.553

## RRIRIRPPRLPRPRPRPHNRPRP
  shrunken log2 fold change: -0.573

## RRIRDRPPRLPRPRPRPQVYPRP
  shrunken log2 fold change: 0.175

## RRIRSRPPRLPRPRPRPFTRPRP
  shrunken log2 fold change: 0.0337

## RRIRPRPPRLPRPRPRPAMPPRP
  shrunken log2 fold change: 0.246

## RRIRARPPRLPRPRPRPSMRPRP
  shrunken log2 fold change: 1.03

## RRIRPRPPRLPRPRPRPGSMPRP
  shrunken log2 fold change: -0.149

## RRIRPRPPRLPRPRPRPFPTPRP
  shrunken log2 fold change: -0.189

## RRIRHRPPRLPRPRPRPEHDPRP
  shrunken log2 fold change: -0.051

## RRIRFRPPRLPRPRPRPWIIPRP
  shrunken log2 fold change: -0.00565

## RRIRMRPPRLPRPRPRPTAPPRP
  shrunken log2 fold change: 0.905

## RRIRARPPRLPRPRPRPLDSPRP
  shrunken log2 fold change: 0.166

## RRIRGRPPRLPRPRPRPDGPPRP
  shrunken log2 fold change: 0.155
